Results on one protein are retold here after article doi:10.1101/2021.04.26.440876, “Fluoxetine targets an allosteric site in the enterovirus 2C AAA+ ATPase and stabilizes the hexameric complex” (bioRxiv, 2021).

This data set concerns the molecule itself. The data set is described as follows: SEC; size exclusion chromatography gel filtration profile of the MBP-tagged full-length preparation (Figure S9).

B1: MBP-tagged full-length CV-B3 2C (natural protein)
chain: NNSWLKKFTEMTNACKGMEWIAVKIQKFIEWLKVKILPEVREKHEFLNRLKQLPLLESQIATIEQSAPSQSDQEQLFSNVQYFAHYCRKYAPLYAAEAKRVFSLEKKMSNYIQFKSKCRIEPVCLLLHGSPGAGKSVATNLIGRSLAEKLNSSVYSLPPDPDHFDGYKQQAVVIMDDLCQNPDGKDVSLFCQMVSSVDFVPPMAALEEKGILFTSPFVLASTNAGSINAPTVSDSRALARRFHFDMNIEVISMYSQNGKINMPMSVKTCDDECCPVNFKKCCPLVCGKAIQFIDRRTQVRYSLDMLVTEMFREYNHRHSVGTTLEALFQ
notes: coxsackievirus B3 non-structural protein 2C (cut product of the polyprotein), full length (329 residues by the printed limits of the other constructs); source: purified
As for B1, the binding result is given as “binds”.
